Paper doi:10.1101/2020.11.06.371773
Where “and” joins values, the source holds several entries; their conditions need not be identical. Identical values can stand only once.

Target: Mayaro virus (MAYV) capsid (C) protein, strain IQT4235 (Mayaro virus, strain IQT4235)
Assay: cryo-EM structure

Mayaro virus (MAYV) capsid (C) protein, strain IQT4235 (natural protein)
stoichiometry N: 6 and 5
